Target: the molecule itself
Test: SEC

B1: His6-eVP40 (Ebola virus matrix protein VP40) (natural protein)
chain: MRRVILPTAPPEYMEAIYPVRSNSTIARGGNSNTGFLTPESVNGDTPSNPLRPIADDTIDHASHTPGSVSSAFILEAMVNVISGPKVLMKQIPIWLPLGVADQKTYSFDSTTAAIMLASYTITHFGKATNPLVRVNRLGPGIPDHPLRLLRIGNQAFLQEFVLPPVQLPQYFTFDLTALKLITQPLPAATWTDDTPTGSNGALRPGISFHPKLRPILLPNKSGKKGNSADLTSPEKIQAIMTSLQDFKIVPIDPTKNIMGIEVPETLVHKLTGKKVTSKNGQPIIPVLLPKYIGLDPVAPGDLTMVITQDCDTCHSPASLPAVIEK
B1 was tested, and the “stoichiometry N” value was 2.
